Two substances from patent US20160068605A1 can be followed below.

The target of test [1] is cell-surface CD3 epsilon on primary human T cells (human) (UniProt P07766). Briefly: saturation binding by flow cytometry on primary human T cells (Donor 10006). On the technique in general: Flow cytometry measures light scatter and fluorescence of single cells or particles in a stream.
Test [2] concerns the target cell-surface CD3 epsilon on primary cynomolgus T cells (cynomolgus monkey) (UniProt Q95LI5). Briefly: saturation binding by flow cytometry on cynomolgus monkey T cells.
Test [3] deals with IL3RA-PK (CD123 tagged with ProLink) in HEK293 IL3RA-PK/CSF2RB-EA cells (UniProt P26951).
Test [4] shares this target. The source holds these as a separate data set.

Where two headings read alike, the source gives them in different places.

Sequence of cell-surface CD3 epsilon on primary cynomolgus T cells (cynomolgus monkey) (Q95LI5 22-198): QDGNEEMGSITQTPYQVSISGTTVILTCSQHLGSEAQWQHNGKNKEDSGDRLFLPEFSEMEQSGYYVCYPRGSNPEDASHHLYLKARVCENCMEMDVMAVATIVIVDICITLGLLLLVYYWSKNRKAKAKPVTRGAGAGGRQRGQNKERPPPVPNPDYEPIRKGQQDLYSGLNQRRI
Sequence of cell-surface CD3 epsilon on primary human T cells (human) (P07766 23-207): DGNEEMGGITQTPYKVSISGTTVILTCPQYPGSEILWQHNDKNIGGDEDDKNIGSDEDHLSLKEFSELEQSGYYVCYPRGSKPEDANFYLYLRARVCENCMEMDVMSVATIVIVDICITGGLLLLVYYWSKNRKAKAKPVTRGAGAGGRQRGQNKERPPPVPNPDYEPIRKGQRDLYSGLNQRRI

Broadly, the Kd is the constant that tells how readily two partners part at equilibrium. On to SP34-2 (antibody), for which, in test [1], the Ab binding sites/cell is 60000 sites/cell and the equilibrium dissociation constant (Kd) amounted to 4.2 nM. In test [2], this substance displayed an Antigen binding sites/cell of 55000 sites/cell and a dissociation constant (Kd) of 1.4 nM.
Turning to IL-3 (from UniProt P08700) (ligand), the EC50 (read off the curve): CD123/CD131 heteromerization (RLU) in test [3] was determined as 3 ng/mL; in test [4], 6 ng/mL.
